Experimental data published in patent US20120270273.

What was measured:
Test in all cases: cell_activity
[1] = tested on: Klf4-dTALE (synthetic (Xanthomonas campestris pv. armoraciae Hax3 scaffold)); details: mCherry reporter; endogenous KLF4 mRNA up 2.2±0.1 fold (p227)
[2] = tested on: Sox2-dTALE (synthetic (Xanthomonas campestris pv. armoraciae Hax3 scaffold)); details: mCherry reporter; endogenous SOX2 mRNA up 5.5±0.1 fold (p227)
[3] = tested on: cMyc-dTALE (synthetic (Xanthomonas campestris pv. armoraciae Hax3 scaffold)); details: mCherry reporter, 293FT
[4] = tested on: ZF-VP64 (erbB-2 zinc finger) (synthetic); details: mCherry reporter induction, 293FT; positive control

KLF4 proximal promoter site
activity [1]: > 20 fold

SOX2 proximal promoter site
activity [2]: > 20 fold

c-MYC proximal promoter site
activity [3]: > 20 fold

erbB-2 promoter ZF site
activity [4]: 16 fold
